{"source": "paper PMC6472409", "about": "“Dishevelled-3 conformation dynamics analyzed by FRET-based biosensors reveals a key role of casein kinase 1” (Nature Communications, 2019)", "molecules": {"B1": {"name": "DVL3 wt (protein, UniProt Q92997 1-716, looked up)", "Segment polarity protein …": "MGETKIIYHLDGQETPYLVKLPLPAERVTLADFKGVLQRPSYKFFFKSMDDDFGVVKEEISDDNAKLPCFNGRVVSWLVSAEGSHPDPAPFCADNPSELPPPMERTGGIGDSRPPSFHPHAGGGSQENLDNDTETDSLVSAQRERPRRRDGPEHATRLNGTAKGERRREPGGYDSSSTLMSSELETTSFFDSDEDDSTSRFSSSTEQSSASRLMRRHKRRRRKQKVSRIERSSSFSSITDSTMSLNIITVTLNMEKYNFLGISIVGQSNERGDGGIYIGSIMKGGAVAADGRIEPGDMLLQVNEINFENMSNDDAVRVLREIVHKPGPITLTVAKCWDPSPRGCFTLPRSEPIRPIDPAAWVSHTAAMTGTFPAYGMSPSLSTITSTSSSITSSIPDTERLDDFHLSIHSDMAAIVKAMASPESGLEVRDRMWLKITIPNAFIGSDVVDWLYHNVEGFTDRREARKYASNLLKAGFIRHTVNKITFSEQCYYIFGDLCGNMANLSLHDHDGSSGASDQDTLAPLPHPGAAPWPMAFPYQYPPPPHPYNPHPGFPELGYSYGGGSASSQHSEGSRSSGSNRSGSDRRKEKDPKAGDSKSGGSGSESDHTTRSSLRGPRERAPSERSGPAASEHSHRSHHSLASSLRSHHTHPSYGPPGVPPLYGPPMLMMPPPPAAMGPPGAPPGRDLASVPPELTASRQSFRMAMGNPSEFFVDVM"}}, "key": {"[1]": {"system": "Wnt/β-catenin pathway", "test": "Dual Luciferase TopFlash/Renilla Reporter Assay", "format": "cell-based, human", "conditions": "for TopFlash relative to DVL3 wt (= 1) / TopFlash in CK1e-/- relative to CK1e wt (= 1): Fig 8d; for TopFlash relative to ctrl (= 1): Suppl. Fig. 2a; for TopFlash FlAsH III (CK1e-/-), relative to ctrl (= 1): Suppl. Fig. 4f; for TopFlash FlAsH III (CK1e-/-), relative to ctrl (= 1) / TopFlash in CK1e-/- relative to CK1e wt (= 1): CK1e-/- cells", "experimental": "Cells were transfected 24 h after seeding with 0.1 μg of Super8X TopFlash construct, 0.1 μg of Renilla luciferase construct, and 0.1 μg of corresponding plasmids per well for 6 h in a 24-well plate. As for the ECFP-DVL3 FIII wt stable cell lines, transfection was followed by 4 h induction of tetracycline (1 µg/ml) and 8 h treatment of CM:DMEM (1:1 ratio). For performing this assay, Promega Dual Luciferase assay kit (Promega, #E1910) was used according to the manufacturer’s instructions. Luminescence was measured by a Hidex Bioscan Plate Chameleon Luminometer. Results are depicted as the ratio of TopFlash and Renilla signal (TopFlash fold induction), which was normalized for each experiment to certain control column (normalized TopFlash fold induction). Data were analyzed by MS Excel 2007 and GraphPad Prism 6 and results were shown as the means ± S.D. (number of experiments indicated ad hoc)."}, "[2]": {"system": "DVL3 membrane recruitment by FZD6 in HEK293 cells", "test": "FZD6-dependent membrane recruitment of DVL3, immunofluorescence", "format": "cell-based, human", "set-up": "key to Non-recruited (DVL3 membrane recruitment): number of cells out of 100 positive cells scored", "conditions": "Fig 8c", "source_text": "First, we analyzed the preferred subcellular localization of DVL3 (as introduced in Fig. 2c)[10],[14]. […] Next, we investigated if DVL3 conformation correlates with the capacity of DVL3 to be recruited by FZD6, a key Wnt receptor, to the plasma membrane. For this purpose, we co-expressed FZD6 and analyzed membrane recruitment of DVL3 in FZD6-positive cells by immunofluorescence. Individual cells were categorized as: not recruited (Fig. 8b, no DVL3 in the membrane), partially recruited (clear membrane as well as cytoplasmic localization), and fully recruited (predominantly plasma membrane localization, Fig. 8c, left). […] In the last readout we analyzed the capacity of DVL3 to activate downstream Wnt/β-catenin pathway monitored by TopFlash reporter assay (Fig. 8d). […] On the other hand, under conditions that favor the open conformation both activation as well as inhibition of the Wnt/β-catenin pathway was evident.\nFor immunofluorescence, cells were seeded (40,000 per well) on 24-well plates with gelatin-coated coverslips and transfected, as indicated, with 0.1 μg of each corresponding plasmid (0.3 μg of mCherry-FZD6) for 6 h. For western blotting and Dual Luciferase TopFlash/Renilla Reporter Assay, cells were seeded (60,000 per well) directly on 24-well plates with 0.1 μg of each corresponding plasmid (if not indicated otherwise) for 6 h. For coimmunoprecipitation, cells were seeded (4.4 × 10^6) on 10-cm dishes and transfected with 1 μg of each corresponding plasmid. The next day after seeding, cells were transfected using polyethyleneimine (PEI) in a stoichiometry of 6 μl of PEI per 1 μg of DNA for 6 h and were harvested 24 h after transfection. The following plasmids used in HEK293 cells have been described previously: FLAG-DVL3 wt[47], CK1ϵ wt[48], mCherry-FZD6 (ref. [37]), and dominant-negative CK1ϵ P3 (ref. [33]). The ECFP-DVL3 wt plasmid was made by Gateway Technology (via LR recombination according to the manufacturer’s instructions; Thermo Fisher Scientific, #11791020) from the donor plasmid pDONR221 DVL3 (DNASU, #FLH178665.01x) and the destination plasmid pdECFP (LMBP, #4548). The HA-DVL3 wt plasmid was made by Gateway Technology from the donor plasmid pDONR221 DVL3 (DNASU, #FLH178665.01x) and the destination plasmid pcDNA3.1 N-term HA (gift from Erich Nigg).\nCells were seeded on gelatin-coated coverslips in 24-well plates and were transfected the next day. Cells were fixed 24 h later in fresh 4% paraformaldehyde, permeabilized with 0.5% Triton X-100, blocked with PBS/BSA/Triton/Azide buffer (PBTA) [3% (wt/vol) BSA, 0.25% Triton, 0.01% NaN3] for 1 h, and incubated overnight with primary antibodies (in dilution 1:500) in PBTA at 4 °C. The next day, the coverslips were washed in PBS and incubated with secondary antibodies conjugated to Alexa Fluor 488 (Invitrogen A11001) or/and Alexa Fluor 594 (Invitrogen A11058) (all in dilution 1:1000), washed with PBS [in case of samples containing FLAG-DVL3 WT and derived variants stained with DAPI (1:5000)], and all coverslips were mounted on microscopic slides. Cells were then visualized on an Olympus IX51 fluorescent microscope using ×40 air or ×100 oil objectives and/or an Olympus Fluoview 500 confocal laser scanning microscope IX71 using ×100 oil objective. One hundred positive cells per experiment (n = 3) were analyzed and scored according to their phenotype into two/three categories (punctae/even); or non-recruited/partially/fully recruited for FZD6-dependent recruitment of DVL3. The antibodies used were as follows: anti-FLAG M2 (Sigma-Aldrich, #F1804), anti-DVL3 (Santa Cruz, #sc-8027), anti-CK1ɛ (Santa Cruz, #sc-6471), anti-RFP (Chromotek, #5h9) and anti-GFP (Fitzgerald, #20R-GR-011)."}, "[3]": {"conditions": "sensor FlAsH III, replicate of grid row r5"}, "[4]": {"conditions": "sensor FlAsH III, replicate of grid row r6"}, "[5]": {"conditions": "sensor FlAsH III, replicate of grid row r7"}, "[6]": {"conditions": "panel of CK1e-/- comparison, wt cells, exp1"}, "[7]": {"conditions": "panel of CK1e-/- comparison, wt cells, exp3"}}}
{"molecule": "Ck1e", "values": [{"measurement": "TopFlash relative to DVL3 wt (= 1)", "setting": "[1]; replicate of grid row r4", "value": 2.8}, {"measurement": "TopFlash relative to DVL3 wt (= 1)", "setting": "[1]; replicate of grid row r5", "value": 2.5}, {"measurement": "TopFlash relative to DVL3 wt (= 1)", "setting": "[1]; replicate of grid row r6", "value": 1.85}, {"measurement": "Fully recruited (DVL3 membrane recruitment)", "setting": "[2]; exp1", "value": 8}, {"measurement": "Non-recruited (DVL3 membrane recruitment)", "setting": "[2]; exp1", "value": 58}, {"measurement": "Partially recruited (DVL3 membrane recruitment)", "setting": "[2]; exp1", "value": 34}, {"measurement": "Fully recruited (DVL3 membrane recruitment)", "setting": "[2]; exp2", "value": 43}, {"measurement": "Non-recruited (DVL3 membrane recruitment)", "setting": "[2]; exp2", "value": 27}, {"measurement": "Partially recruited (DVL3 membrane recruitment)", "setting": "[2]; exp2", "value": 30}, {"measurement": "Fully recruited (DVL3 membrane recruitment)", "setting": "[2]; exp3", "value": 15}, {"measurement": "Non-recruited (DVL3 membrane recruitment)", "setting": "[2]; exp3", "value": 63}, {"measurement": "Partially recruited (DVL3 membrane recruitment)", "setting": "[2]; exp3", "value": 22}]}
{"molecule": "CK1e", "values": [{"measurement": "TopFlash relative to ctrl (= 1)", "setting": "[1]; sensor FlAsH I, replicate of grid row r5", "value": 1.477}, {"measurement": "TopFlash relative to ctrl (= 1)", "setting": "[1]; sensor FlAsH I, replicate of grid row r6", "value": 1.51}, {"measurement": "TopFlash relative to ctrl (= 1)", "setting": "[1]; sensor FlAsH I, replicate of grid row r7", "value": 1.233}, {"measurement": "TopFlash relative to ctrl (= 1)", "setting": "[1]; sensor FlAsH II, replicate of grid row r5", "value": 1.907}, {"measurement": "TopFlash relative to ctrl (= 1)", "setting": "[1]; sensor FlAsH II, replicate of grid row r6", "value": 2.332}, {"measurement": "TopFlash relative to ctrl (= 1)", "setting": "[1]; sensor FlAsH II, replicate of grid row r7", "value": 1.874}, {"measurement": "TopFlash relative to ctrl (= 1)", "setting": "[1]; [3]", "value": 2.614}, {"measurement": "TopFlash relative to ctrl (= 1)", "setting": "[1]; [4]", "value": 1.858}, {"measurement": "TopFlash relative to ctrl (= 1)", "setting": "[1]; [5]", "value": 2.849}, {"measurement": "TopFlash relative to ctrl (= 1)", "setting": "[1]; sensor FlAsH IV, replicate of grid row r5", "value": 3.481}, {"measurement": "TopFlash relative to ctrl (= 1)", "setting": "[1]; sensor FlAsH IV, replicate of grid row r6", "value": 2.7}, {"measurement": "TopFlash relative to ctrl (= 1)", "setting": "[1]; sensor FlAsH IV, replicate of grid row r7", "value": 1.4298}, {"measurement": "TopFlash FlAsH III (CK1e-/-), relative to ctrl (= 1)", "setting": "[1]; [3]", "value": 2.409}, {"measurement": "TopFlash FlAsH III (CK1e-/-), relative to ctrl (= 1)", "setting": "[1]; [4]", "value": 2.306}, {"measurement": "TopFlash FlAsH III (CK1e-/-), relative to ctrl (= 1)", "setting": "[1]; [5]", "value": 3.0297}]}
{"molecule": "B1", "values": [{"measurement": "TopFlash in CK1e-/- relative to CK1e wt (= 1)", "setting": "[1]; replicate of grid row r4", "value": 0.2303}, {"measurement": "TopFlash in CK1e-/- relative to CK1e wt (= 1)", "setting": "[1]; replicate of grid row r5", "value": 0.1152}, {"measurement": "TopFlash in CK1e-/- relative to CK1e wt (= 1)", "setting": "[1]; replicate of grid row r6", "value": 0.24}, {"measurement": "TopFlash in CK1e-/- relative to CK1e wt (= 1)", "setting": "[1]; replicate of grid row r7", "value": 0.2094}, {"measurement": "Fully recruited (DVL3 membrane recruitment)", "setting": "[2]; CK1e-/- cells, exp1", "value": 31}, {"measurement": "Non-recruited (DVL3 membrane recruitment)", "setting": "[2]; CK1e-/- cells, exp1", "value": 33}, {"measurement": "Partially recruited (DVL3 membrane recruitment)", "setting": "[2]; CK1e-/- cells, exp1", "value": 36}, {"measurement": "Fully recruited (DVL3 membrane recruitment)", "setting": "[2]; CK1e-/- cells, exp2", "value": 16}, {"measurement": "Non-recruited (DVL3 membrane recruitment)", "setting": "[2]; CK1e-/- cells, exp2", "value": 44}, {"measurement": "Partially recruited (DVL3 membrane recruitment)", "setting": "[2]; CK1e-/- cells, exp2", "value": 40}, {"measurement": "Fully recruited (DVL3 membrane recruitment)", "setting": "[2]; CK1e-/- cells, exp3", "value": 26}, {"measurement": "Non-recruited (DVL3 membrane recruitment)", "setting": "[2]; CK1e-/- cells, exp3", "value": 50}, {"measurement": "Partially recruited (DVL3 membrane recruitment)", "setting": "[2]; CK1e-/- cells, exp3", "value": 24}, {"measurement": "Fully recruited (DVL3 membrane recruitment)", "setting": "[2]; exp1", "value": 11}, {"measurement": "Non-recruited (DVL3 membrane recruitment)", "setting": "[2]; exp1", "value": 58}, {"measurement": "Partially recruited (DVL3 membrane recruitment)", "setting": "[2]; exp1", "value": 31}, {"measurement": "Fully recruited (DVL3 membrane recruitment)", "setting": "[2]; exp2", "value": 20}, {"measurement": "Non-recruited (DVL3 membrane recruitment)", "setting": "[2]; exp2", "value": 34}, {"measurement": "Partially recruited (DVL3 membrane recruitment)", "setting": "[2]; exp2", "value": 46}, {"measurement": "Fully recruited (DVL3 membrane recruitment)", "setting": "[2]; exp3", "value": 22}, {"measurement": "Non-recruited (DVL3 membrane recruitment)", "setting": "[2]; exp3", "value": 48}, {"measurement": "Partially recruited (DVL3 membrane recruitment)", "setting": "[2]; exp3", "value": 30}, {"measurement": "Fully recruited (DVL3 membrane recruitment)", "setting": "[2]; [6]", "value": 8}, {"measurement": "Non-recruited (DVL3 membrane recruitment)", "setting": "[2]; [6]", "value": 65}, {"measurement": "Partially recruited (DVL3 membrane recruitment)", "setting": "[2]; [6]", "value": 27}, {"measurement": "Fully recruited (DVL3 membrane recruitment)", "setting": "[2]; [7]", "value": 20}, {"measurement": "Non-recruited (DVL3 membrane recruitment)", "setting": "[2]; [7]", "value": 51}, {"measurement": "Partially recruited (DVL3 membrane recruitment)", "setting": "[2]; [7]", "value": 29}]}
